This note sets out measurements from PMC6727773 (Molecular Biology of the Cell, 2019).

This assay addresses T1, His-MPDZ-PDZ1-4 (aa 1-700) WT (human, UniProt O75970-3 1-700).
T1 sequence (looked up): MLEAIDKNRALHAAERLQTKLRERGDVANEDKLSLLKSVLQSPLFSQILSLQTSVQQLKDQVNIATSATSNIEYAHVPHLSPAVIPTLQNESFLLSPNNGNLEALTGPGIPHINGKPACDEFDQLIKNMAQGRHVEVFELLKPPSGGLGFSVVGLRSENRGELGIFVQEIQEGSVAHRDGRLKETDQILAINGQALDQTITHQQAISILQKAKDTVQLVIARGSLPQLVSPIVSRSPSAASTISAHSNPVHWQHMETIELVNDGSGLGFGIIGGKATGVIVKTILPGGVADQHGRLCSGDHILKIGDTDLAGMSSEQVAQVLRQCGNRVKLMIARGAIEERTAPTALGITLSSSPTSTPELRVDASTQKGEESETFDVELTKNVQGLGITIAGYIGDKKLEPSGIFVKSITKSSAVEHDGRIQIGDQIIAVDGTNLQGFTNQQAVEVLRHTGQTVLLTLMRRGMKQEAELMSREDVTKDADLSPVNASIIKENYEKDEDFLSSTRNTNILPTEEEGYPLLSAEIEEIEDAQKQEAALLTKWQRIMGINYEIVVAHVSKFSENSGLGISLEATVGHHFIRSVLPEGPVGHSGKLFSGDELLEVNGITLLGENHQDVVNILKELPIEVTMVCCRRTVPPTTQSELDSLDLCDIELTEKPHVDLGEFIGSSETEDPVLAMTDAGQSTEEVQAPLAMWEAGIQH
Kind of assay: pull-down.

B1: GST-DAPLE (aa 1908-2028) (domain or fragment, human, UniProt Q9P219 1908-2028, looked up)
chain: IATAGAGAAAAGSGSNSQLLHFSPAAAPAARTKPKAPPRSGEVATITPVRAGLSLSEGDGVPGQGCSEGLPAKSPGRSPDLAPHLGRALEDCSRGSVSKSSPASPEPGGDPQTVWYEYGCV
As for B1, the binding result is “binds”.
